Numbered stars: 1 amine (or outer) side, 2 acyl side, 3 side chain; on linkers, the order of the positions; unused ones are H or OH. Bridge positions count the residues as written; N and C are the ends. Ends that are not written are not given here. Phenylene(1,4-NHCOCH2)2 = O=C(C[*:1])Nc1ccc(NC(=O)C[*:2])cc1
Molecular target: T1, CHIP (Homo sapiens, UniProt Q9UNE7)
T1 construct: N-term truncated CHIP (also known as STUB1, Uniprot ID: Q9UNE7, residues 23-303); made in house; host or cells: E. coli BL21 CodonPlus
T1 sequence (Q9UNE7 23-303): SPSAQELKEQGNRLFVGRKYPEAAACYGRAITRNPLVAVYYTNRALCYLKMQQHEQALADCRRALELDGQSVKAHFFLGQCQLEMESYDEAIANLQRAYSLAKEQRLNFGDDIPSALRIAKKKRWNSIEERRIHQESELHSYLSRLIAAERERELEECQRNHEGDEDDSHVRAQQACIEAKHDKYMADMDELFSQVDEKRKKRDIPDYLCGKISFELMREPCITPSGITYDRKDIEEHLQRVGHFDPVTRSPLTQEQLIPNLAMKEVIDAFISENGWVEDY
Experiment: Naive Library Presenter Screening (phage, NGS), CHIP
Assay type: binding
Conditions: for interaction data, BLANK: Blank = Media only
Procedure: To conduct phage library screening, previously described procedures were utilized in accordance with the present disclosure.
Next-generation sequencing was performed as described in accordance with the present disclosure.
Hit ID and Clustering is performed according to a described procedure in accordance with the present disclosure.

[1] = CHIP target concentration 10 nM
[2] = CHIP target concentration 30 nM
[3] = CHIP target concentration 100 nM
[4] = CHIP target concentration 300 nM
[5] = CHIP target concentration 1000 nM, first column
[6] = CHIP target concentration 1000 nM, second column
[7] = CHIP clusters (C83, C84), first column
[8] = CHIP clusters (C83, C84), second column
[9] = CHIP clusters (C83, C84), target concentration 10 nM
[10] = CHIP clusters (C83, C84), target concentration 30 nM
[11] = CHIP clusters (C83, C84), target concentration 100 nM
[12] = CHIP clusters (C83, C84), target concentration 300 nM
[13] = CHIP clusters (C83, C84), target concentration 1000 nM, first column
[14] = CHIP clusters (C83, C84), target concentration 1000 nM, second column

Row | interaction data at Target Concentration 10 [1] | interaction data at Target Concentration 30 [2] | interaction data at Target Concentration 100 [3] | interaction data at Target Concentration 300 [4] | interaction data at Target Concentration 1000 [5] | interaction data at Target Concentration 1000 [6] | interaction data, BLANK [7] | interaction data, BLANK [8] | interaction data at Target Concentration 10 [9] | interaction data at Target Concentration 30 [10] | interaction data at Target Concentration 100 [11] | interaction data at Target Concentration 300 [12] | interaction data at Target Concentration 1000 [13] | interaction data at Target Concentration 1000 [14] | Sequence
1 | 0 | 0 | 0 | 74 | 143 | 57 | – | – | – | – | – | – | – | – | PMCSDAWLFCE (linker 3-10 via Phenylene(1,4-NHCOCH2)2 (inferred))
2 | 19 | 142 | 542 | 632 | 701 | 581 | – | – | – | – | – | – | – | – | PCWDAWMLCTD (linker 2-9 via Phenylene(1,4-NHCOCH2)2 (inferred))
3 | – | – | – | – | – | – | 0 | 0 | 0 | 0 | 1 | 17 | 7 | 32 | DPAETFCWDAADICMVD (linker 7-14 via Phenylene(1,4-NHCOCH2)2 (inferred))
4 | – | – | – | – | – | – | 0 | 0 | 0 | 0 | 0 | 47 | 25 | 57 | DPAQDNCHYAAHICMVD (DPAQDNCHYAAHICMVD-NH2; linker 7-14 via Phenylene(1,4-NHCOCH2)2 (inferred))
5 | 1 | 2 | 13 | 16 | 21 | 20 | – | – | – | – | – | – | – | – | ICYNARLECE (linker 2-9 via Phenylene(1,4-NHCOCH2)2 (inferred))
6 | – | – | – | – | – | – | 0 | 0 | 0 | 0 | 19 | 15 | 23 | 24 | DPAIIWCSQAASICTVD (linker 7-14 via Phenylene(1,4-NHCOCH2)2 (inferred))
7 | – | – | – | – | – | – | 0 | 0 | 0 | 0 | 0 | 21 | 16 | 22 | DPAVRWCAAAAAICMVD (linker 7-14 via Phenylene(1,4-NHCOCH2)2 (inferred); not fully specified (C-terminus))
8 | – | – | – | – | – | – | 0 | 0 | 0 | 0 | 0 | 3 | 8 | 5 | DPAFTACQFAAAMCDSS (linker 7-14 via Phenylene(1,4-NHCOCH2)2 (inferred))
9 | 0 | 0 | 4 | 124 | 194 | 145 | – | – | – | – | – | – | – | – | PCWEAWLWCSM (linker 2-9 via Phenylene(1,4-NHCOCH2)2 (inferred))
10 | 4 | 83 | 121 | 285 | 375 | 297 | – | – | – | – | – | – | – | – | PCFEAWVMCEI (linker 2-9 via Phenylene(1,4-NHCOCH2)2 (inferred))

From patent publication US20240376151A1, “STAPLED PEPTIDES AND METHODS THEREOF” (FOG PHARMACEUTICALS, INC., priority 2022, published 2024)
